From the supplement of paper PMC12667976
± gives the standard error.

B1: library; numbered along this chain (parent)
chain: MATDAALRRLLRLHRTEIAVAVDSAFPLLHALADHDVVPEDKFQETLHLKEKEGCPQAFHALLSWLLTQDSTAILDFWRVLFKDYNLERYGRLQPILDSFPKDVDLSQPRKGRKPPAVPKALVPPPRLPTKRKASEEARAAAPAALTPRGTASPGSQLKAKPPKKPESSAEQQRLPLGNGIQTMSASVQRAVAMSSGDVPGARGAVEGILIQQVFESGGSKKCIQVGGEFYTPSKFEDSGSGKNKARSSSGPKPLVRAKGAQGAAPGGGEARLGQQGSVPAPLALPSDPQLHQKNEDECAVCRDGGELICCDGCPRAFHLACLSPPLREIPSGTWRCSSCLQATVQEVQPRAEEPRPQEPPVETPLPPGLRSAGEEVRGPPGEPLAGMDTTLVYKHLPAPPSAAPLPGLDSSALHPLLCVGPEGQQNLAPGARCGVCGDGTDVLRCTHCAAAFHWRCHFPAGTSRPGTGLRCRSCSGDVTPAPVEGVLAPSPARLAPGPAKDDTASHEPALHRDDLESLLSEHTFDGILQWAIQSMARPAAPFPS

Variants of: B1
Assay: AIRE transcriptional activation functional score (insulin promoter-GFP; nonsense median 0, synonymous median 1) (normalised score); higher = higher AIRE activity (more reporter activation)
Settings: with insulin promoter-GFP reporter in HEK293
Summary of the method: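 Flp-In T-REx HEK293 landing-pad cells carrying an insulin core promoter-GFP reporter received codon-optimized AIRE NNN-codon libraries (three regions) through Bxb1 recombinase. Sorting of mCherry+, BFP− integrants took place at day 7, followed by 7 days of expansion and tile-sequencing of top 10% GFP and unselected integrant populations. A functional score was derived from select versus non-select variant enrichment with wild type subtracted. Values from variants reaching 10 counts per million in non-select were set to nonsense median 0 and synonymous median 1 and averaged over biological replicates.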

Point of comparison: V20K, “AIRE transcriptional activation functional score” value -0.579 ± 0.17. Against it:
- A281M — higher, 0.425 ± 0.077
- A281E — higher, -0.175 ± 0.053
- A261I — higher, 0.612 ± 0.18
- A261P — higher, 1.06 ± 0.19
- R328S — higher, 1.17 ± 0.17
- Q212R — higher, 1.09 ± 0.32
- C302A — higher, 0.669 ± 0.098
- P398E — higher, 0.984 ± 0.074
- G469P — higher, 0.911 ± 0.2
- G469W — higher, 1.08 ± 0.024
- L323K — higher, 1.19 ± 0.27
- L323Y — higher, 0.513 ± 0.12
- Q213C — higher, 0.354 ± 0.19
- L283E — higher, 0.987 ± 0.2
- G477I — higher, 1.01 ± 0.33
- G477C — higher, 0.926 ± 0.17
- V479F — higher, 0.98 ± 0.093
- P252I — higher, 0.937 ± 0.16
- E171R — higher, 1.22 ± 0.71
- E51P — within error, -0.179 ± 0.61
- E51L — higher, 0.248 ± 0.5
- L11V — higher, 0.213 ± 0.5
- L11M — higher, 0.0247 ± 0.081
- G219C — higher, 1.5 ± 0.18
- F459A — higher, 0.0803 ± 0.28
- A202H — higher, 1 ± 0.39
- A202Q — higher, 0.415 ± 0.33
- P326Y — higher, 1.14 ± 0.061
- P326F — higher, 1.72 ± 0.14
- L273H — higher, 0.264 ± 0.23
- V38I — higher, 1.55 ± 0.76
- V38M — higher, 0.387 ± 0.074
- F318D — higher, 1.02 ± 0.18
- D478Y — higher, 0.902 ± 0.085
- D478E — higher, 1.09 ± 0.098
- G197Q — higher, 0.484 ± 0.34
- G197L — higher, 1.06 ± 0.39
- L62K — within error, -0.404 ± 0.34
- A352L — higher, 1.06 ± 0.21
- A352C — higher, 1.1 ± 0.31
- V20E — lower, -1.26 ± 0.12
- G268Y — higher, 0.298 ± 0.071
- G268Q — higher, 0.515 ± 0.043
- W531P — higher, -0.179 ± 0.18
- G208P — higher, 0.201 ± 0.22
- G208S — higher, 0.651 ± 0.2
- R190P — higher, 0.955 ± 0.14
- S324N — higher, 1.08 ± 0.064
- V362H — higher, 0.807 ± 0.3
- V362I — higher, 1.32 ± 0.12
- E359D — higher, 0.954 ± 0.056
- K83D — within error, -0.0712 ± 0.38
- S250T — higher, 0.687 ± 0.16
- T468L — higher, 1.18 ± 0.18
- E296C — higher, 0.394 ± 0.58
- E296Q — higher, 1.06 ± 0.12
- P416T — higher, 0.937 ± 0.11
- K114A — higher, -0.00452 ± 0.042
- K114F — higher, 0.817 ± 0.29
- C299M — higher, 0.737 ± 0.18
- C299T — higher, 0.711 ± 0.31
- M388Y — higher, -0.0355 ± 0.024
- M388W — higher, 1.46 ± 0.11
- M388A — higher, 0.871 ± 0.3
- P116T — within error, 0.481 ± 0.99
- P116A — higher, 0.756 ± 0.5
- P282S — higher, 0.614 ± 0.22
- P282A — higher, 0.929 ± 0.3
- P282C — higher, 2.16 ± 0.071
- G218P — higher, 0.651 ± 0.19
- G218E — higher, -0.051 ± 0.083
- H396K — higher, 1.61 ± 0.096
- Q44C — higher, -0.0407 ± 0.22
- C322F — higher, 0.737 ± 0.15
- L470C — higher, 0.85 ± 0.11
- L470R — higher, 0.997 ± 0.19
- V192E — higher, 0.516 ± 0.13
- W65C — higher, 0.469 ± 0.22
- L385A — higher, 0.341 ± 0.33
- L417C — higher, 1.24 ± 0.17
- L417W — higher, 1.3 ± 0.069
- A6G — higher, 1.2 ± 0.27
- F43H — lower, -1.42 ± 0.58
- G112L — higher, 1.31 ± 0.58
- G112A — higher, 1.49 ± 0.71
- A284P — higher, 0.905 ± 0.28
- P176N — higher, 0.411 ± 0.54
- E270S — higher, 0.795 ± 0.13
- E270Q — higher, 1.15 ± 0.33
- P401C — higher, 1.7 ± 0.066
- P401Q — higher, 1.18 ± 0.098
- H319F — higher, 0.514 ± 0.2
- E375Q — higher, 1.05 ± 0.13
- P492W — higher, 0.687 ± 0.21
- R272Y — higher, 0.677 ± 0.23
- D514R — higher, 0.191 ± 0.14
- F453C — higher, 0.283 ± 0.1
- E53R — within error, -0.133 ± 0.6
- E53M — higher, 0.544 ± 0.27
- T183G — higher, 0.735 ± 0.22
- H30R — higher, 0.24 ± 0.49
- H14V — within error, -0.238 ± 0.39
- H14R — within error, -0.348 ± 0.51
- Q342G — higher, 0.963 ± 0.34
- Q342P — higher, 0.83 ± 0.18
- G263E — higher, 1.42 ± 0.15
- V123K — higher, 1.26 ± 0.2
- R473Y — higher, 1.64 ± 0.16
- R473W — higher, 0.97 ± 0.13
- G201A — higher, 0.802 ± 0.15
- A205H — higher, 1.58 ± 0.18
- R113D — higher, 0.648 ± 0.2
- L406T — higher, 0.633 ± 0.27
- L66C — within error, -0.733 ± 0.54
- L66P — within error, 0.349 ± 0.9
- E307I — higher, 0.714 ± 0.45
- E307A — higher, 0.982 ± 0.31
- K131L — within error, -0.159 ± 0.3
- P361S — higher, 1.21 ± 0.15
- L428P — higher, 0.955 ± 0.32
- G228S — higher, 0.591 ± 0.44
- E522C — higher, 0.0951 ± 0.24
- P325N — higher, 0.521 ± 0.16
- G382Q — higher, 1.24 ± 0.18
- G382T — higher, 0.841 ± 0.25
- P544F — higher, 0.586 ± 0.11
- S185H — within error, -0.313 ± 0.18
- L177I — higher, 0.748 ± 0.51
- L414P — higher, 0.785 ± 0.23
- V37H — higher, 0.218 ± 0.17
- A258I — higher, 0.643 ± 0.33
- E40P — higher, 0.61 ± 0.58
- Q157I — higher, 0.859 ± 0.43
- A121Y — higher, 1.59 ± 0.18
- A321Y — higher, 0.541 ± 0.22
- A321G — higher, 1.21 ± 0.12
- S64M — higher, -0.0813 ± 0.17
- S64H — higher, 0.583 ± 0.12
- R127N — higher, 1.09 ± 0.27
- F236K — higher, 0.0925 ± 0.14
- P542Q — higher, 0.942 ± 0.21
- L444T — higher, 0.477 ± 0.063
- R378E — higher, 0.928 ± 0.45
- T344F — higher, 1.26 ± 0.16
- A541L — higher, 0.957 ± 0.3
- P166E — within error, -0.713 ± 0.29
- P166Q — higher, 1.16 ± 0.41
- A404V — higher, 0.729 ± 0.3
- G421M — higher, 0.931 ± 0.18
- V104F — higher, 1.15 ± 0.26
- T441S — higher, 1.02 ± 0.28
- A152C — higher, 0.402 ± 0.25
- P381D — higher, 0.696 ± 0.43
- S402V — higher, 0.921 ± 0.23
- S402G — higher, 1.34 ± 0.22
- E363D — higher, 0.917 ± 0.049
- E363P — higher, 0.843 ± 0.19
- A144S — higher, 0.773 ± 0.41
- K52W — within error, -0.861 ± 0.18
- D41T — higher, 0.827 ± 0.14
- R538K — higher, 1.18 ± 0.1
- E136T — higher, 0.767 ± 0.32
- E347I — higher, 1.15 ± 0.12
- G379I — higher, 1.26 ± 0.061
- P422A — higher, 0.724 ± 0.49
- P422V — higher, 0.479 ± 0.25
